Assay results reported in patent publication US20240400708A1.

How the values were obtained:
[1] = target: feline FcRn complex (FcRn-α subunit and β-microglobulin), biotin labeled (feline); assay: SPR, pH 7.4
[2] = target: feline FcRn complex (FcRn-α subunit and β-microglobulin), biotin labeled (feline); assay: SPR, pH 6

Binder	Kd [1] [nM]	Kd [2] [nM]
feline IgG1a S252Y/S428Y/D312P (antibody, part only; not given: variable domains, not shown: another chain or arm of the molecule) constant: ASTTAPSVFPLAPSCGTTSGATVALACLVLGYFPEPVTVSWNSGALTSGVHTFPAVLQASGLYSLSSMVTVPSSRWLSDTFTCNVAHPPSNTKVDKTVRKTDHPPGPKPCDCPKCPPPEMLGGPSIFIFPPKPKDTLYISRTPEVTCLVVDLGPDDSDVQITWFVDNTQVYTAKTSPREEQFNSTYRVVSVLPILHQPWLKGKEFKCKVNSKSLPSPIERTISKAKGQPHEPQVYVLPPAQEELSRNKVSVTCLIKSFHPPDIAVEWEITGQPEPENNYRTTPPQLDSDGTYFVYSKLSVDRSHWQRGNTYTCSVYHEALHSHHTQKSLTQSPGK	4080	15.1
feline IgG1a S428Y/Q311W (antibody, part only; not given: Variable domains, not shown: another chain or arm of the molecule) constant: ASTTAPSVFPLAPSCGTTSGATVALACLVLGYFPEPVTVSWNSGALTSGVHTFPAVLQASGLYSLSSMVTVPSSRWLSDTFTCNVAHPPSNTKVDKTVRKTDHPPGPKPCDCPKCPPPEMLGGPSIFIFPPKPKDTLSISRTPEVTCLVVDLGPDDSDVQITWFVDNTQVYTAKTSPREEQFNSTYRVVSVLPILHWDWLKGKEFKCKVNSKSLPSPIERTISKAKGQPHEPQVYVLPPAQEELSRNKVSVTCLIKSFHPPDIAVEWEITGQPEPENNYRTTPPQLDSDGTYFVYSKLSVDRSHWQRGNTYTCSVYHEALHSHHTQKSLTQSPGK	7630	12.7
feline IgG1a S428Y/L314K (antibody, part only; not given: Variable domains, not shown: another chain or arm of the molecule) constant: ASTTAPSVFPLAPSCGTTSGATVALACLVLGYFPEPVTVSWNSGALTSGVHTFPAVLQASGLYSLSSMVTVPSSRWLSDTFTCNVAHPPSNTKVDKTVRKTDHPPGPKPCDCPKCPPPEMLGGPSIFIFPPKPKDTLSISRTPEVTCLVVDLGPDDSDVQITWFVDNTQVYTAKTSPREEQFNSTYRVVSVLPILHQDWKKGKEFKCKVNSKSLPSPIERTISKAKGQPHEPQVYVLPPAQEELSRNKVSVTCLIKSFHPPDIAVEWEITGQPEPENNYRTTPPQLDSDGTYFVYSKLSVDRSHWQRGNTYTCSVYHEALHSHHTQKSLTQSPGK	1850	7.63
feline IgG1a S252Y/S434W (antibody, part only; not given: Variable domains, not shown: another chain or arm of the molecule) constant: ASTTAPSVFPLAPSCGTTSGATVALACLVLGYFPEPVTVSWNSGALTSGVHTFPAVLQASGLYSLSSMVTVPSSRWLSDTFTCNVAHPPSNTKVDKTVRKTDHPPGPKPCDCPKCPPPEMLGGPSIFIFPPKPKDTLYISRTPEVTCLVVDLGPDDSDVQITWFVDNTQVYTAKTSPREEQFNSTYRVVSVLPILHQDWLKGKEFKCKVNSKSLPSPIERTISKAKGQPHEPQVYVLPPAQEELSRNKVSVTCLIKSFHPPDIAVEWEITGQPEPENNYRTTPPQLDSDGTYFVYSKLSVDRSHWQRGNTYTCSVSHEALHWHHTQKSLTQSPGK	8380	10.2
feline IgG1a S428Y/D312P/L314K (antibody, part only; not given: Variable domains, not shown: another chain or arm of the molecule) constant: ASTTAPSVFPLAPSCGTTSGATVALACLVLGYFPEPVTVSWNSGALTSGVHTFPAVLQASGLYSLSSMVTVPSSRWLSDTFTCNVAHPPSNTKVDKTVRKTDHPPGPKPCDCPKCPPPEMLGGPSIFIFPPKPKDTLSISRTPEVTCLVVDLGPDDSDVQITWFVDNTQVYTAKTSPREEQFNSTYRVVSVLPILHQPWKKGKEFKCKVNSKSLPSPIERTISKAKGQPHEPQVYVLPPAQEELSRNKVSVTCLIKSFHPPDIAVEWEITGQPEPENNYRTTPPQLDSDGTYFVYSKLSVDRSHWQRGNTYTCSVYHEALHSHHTQKSLTQSPGK	6860	15.2
feline IgG1a S252Y/S428Y/L314K (antibody, part only; not given: Variable domains, not shown: another chain or arm of the molecule) constant: ASTTAPSVFPLAPSCGTTSGATVALACLVLGYFPEPVTVSWNSGALTSGVHTFPAVLQASGLYSLSSMVTVPSSRWLSDTFTCNVAHPPSNTKVDKTVRKTDHPPGPKPCDCPKCPPPEMLGGPSIFIFPPKPKDTLYISRTPEVTCLVVDLGPDDSDVQITWFVDNTQVYTAKTSPREEQFNSTYRVVSVLPILHQDWKKGKEFKCKVNSKSLPSPIERTISKAKGQPHEPQVYVLPPAQEELSRNKVSVTCLIKSFHPPDIAVEWEITGQPEPENNYRTTPPQLDSDGTYFVYSKLSVDRSHWQRGNTYTCSVYHEALHSHHTQKSLTQSPGK	23300	7.93
feline IgG1a S252Y/S434W/Q311W (antibody, part only; not given: Variable domains, not shown: another chain or arm of the molecule) constant: ASTTAPSVFPLAPSCGTTSGATVALACLVLGYFPEPVTVSWNSGALTSGVHTFPAVLQASGLYSLSSMVTVPSSRWLSDTFTCNVAHPPSNTKVDKTVRKTDHPPGPKPCDCPKCPPPEMLGGPSIFIFPPKPKDTLYISRTPEVTCLVVDLGPDDSDVQITWFVDNTQVYTAKTSPREEQFNSTYRVVSVLPILHWDWLKGKEFKCKVNSKSLPSPIERTISKAKGQPHEPQVYVLPPAQEELSRNKVSVTCLIKSFHPPDIAVEWEITGQPEPENNYRTTPPQLDSDGTYFVYSKLSVDRSHWQRGNTYTCSVSHEALHWHHTQKSLTQSPGK	2190	6.59

Stronger by Kd [1], values ahead:

Kd [1] [nM]	Kd [2] [nM]	Binder
4.44	0.143	feline IgG1a S252Y/S434R/Q311W (antibody, part only; not given: Variable domains, not shown: another chain or arm of the molecule) constant: ASTTAPSVFPLAPSCGTTSGATVALACLVLGYFPEPVTVSWNSGALTSGVHTFPAVLQASGLYSLSSMVTVPSSRWLSDTFTCNVAHPPSNTKVDKTVRKTDHPPGPKPCDCPKCPPPEMLGGPSIFIFPPKPKDTLYISRTPEVTCLVVDLGPDDSDVQITWFVDNTQVYTAKTSPREEQFNSTYRVVSVLPILHWDWLKGKEFKCKVNSKSLPSPIERTISKAKGQPHEPQVYVLPPAQEELSRNKVSVTCLIKSFHPPDIAVEWEITGQPEPENNYRTTPPQLDSDGTYFVYSKLSVDRSHWQRGNTYTCSVSHEALHRHHTQKSLTQSPGK
989	8.39	feline IgG1a S252Y/S434H/Q311W (antibody, part only; not given: variable domains, not shown: another chain or arm of the molecule) constant: ASTTAPSVFPLAPSCGTTSGATVALACLVLGYFPEPVTVSWNSGALTSGVHTFPAVLQASGLYSLSSMVTVPSSRWLSDTFTCNVAHPPSNTKVDKTVRKTDHPPGPKPCDCPKCPPPEMLGGPSIFIFPPKPKDTLYISRTPEVTCLVVDLGPDDSDVQITWFVDNTQVYTAKTSPREEQFNSTYRVVSVLPILHWDWLKGKEFKCKVNSKSLPSPIERTISKAKGQPHEPQVYVLPPAQEELSRNKVSVTCLIKSFHPPDIAVEWEITGQPEPENNYRTTPPQLDSDGTYFVYSKLSVDRSHWQRGNTYTCSVSHEALHHHHTQKSLTQSPGK
14.4	0.433	feline IgG1a S434Y (antibody, part only; not given: Variable domains, not shown: another chain or arm of the molecule) constant: ASTTAPSVFPLAPSCGTTSGATVALACLVLGYFPEPVTVSWNSGALTSGVHTFPAVLQASGLYSLSSMVTVPSSRWLSDTFTCNVAHPPSNTKVDKTVRKTDHPPGPKPCDCPKCPPPEMLGGPSIFIFPPKPKDTLSISRTPEVTCLVVDLGPDDSDVQITWFVDNTQVYTAKTSPREEQFNSTYRVVSVLPILHQDWLKGKEFKCKVNSKSLPSPIERTISKAKGQPHEPQVYVLPPAQEELSRNKVSVTCLIKSFHPPDIAVEWEITGQPEPENNYRTTPPQLDSDGTYFVYSKLSVDRSHWQRGNTYTCSVSHEALHYHHTQKSLTQSPGK
17.2	0.793	feline IgG1a S428Y/L314K/S434Y (antibody, part only; not given: Variable domains, not shown: another chain or arm of the molecule) constant: ASTTAPSVFPLAPSCGTTSGATVALACLVLGYFPEPVTVSWNSGALTSGVHTFPAVLQASGLYSLSSMVTVPSSRWLSDTFTCNVAHPPSNTKVDKTVRKTDHPPGPKPCDCPKCPPPEMLGGPSIFIFPPKPKDTLSISRTPEVTCLVVDLGPDDSDVQITWFVDNTQVYTAKTSPREEQFNSTYRVVSVLPILHQDWKKGKEFKCKVNSKSLPSPIERTISKAKGQPHEPQVYVLPPAQEELSRNKVSVTCLIKSFHPPDIAVEWEITGQPEPENNYRTTPPQLDSDGTYFVYSKLSVDRSHWQRGNTYTCSVYHEALHYHHTQKSLTQSPGK
